In patent US20110097270A1 (published 2011):

Biological target: hepatitis B virus (HBV) inoculum (hepatitis B virus)
Assay: cell-based or functional assay

B1: HBV#8 Fab (Fab, V domains shown)
VH: EVQLLESGPGLVKPSQTLSLTCAVSGAFMTSDYLYWSWLRQPPGKGPEWIGGIYTTGRSHYNPSLRGRATLSVDTSKNQFSLELNSVTAADTAVYYCARGQYHNWGPSLFDYYNYYYMDVWGKGTTVTVSS
VL: AAELTQSPSSLSASVGDRVTITCRASQDISNYLAWYQQKPGKAPKLLIYSASRLQSGVPSRFSGSGSGTDYTLTLSSLHPEDSATYYCHQYHSAPWTFGQGTKVEIKR
B1 was tested, and the “P/N of HBsAg in cell supernatant (RIA, day 12) at MAb 0.01 µg ml^-1” value was 82 P/N ratio, the “P/N of HBsAg in cell supernatant (RIA, day 12) at MAb 0.1 µg ml^-1” value was 83.3 P/N ratio and the “P/N of HBsAg in cell supernatant (RIA, day 12) at MAb 1.0 µg ml^-1” value was 55.8 P/N ratio. For the same binder, the “P/N of HBsAg in cell supernatant (RIA, day 12) at MAb 10.0 µg ml^-1” value was 4.1 P/N ratio.
